From publication PMC8654365

Legend:
[1] = biological target: HA-tagged RON (Recepteur d'Origine Nantais, MST1R) stably expressed in A431 cells (human); test: two-colour single quantum dot tracking with two-state hidden Markov model; live A431^RON cells; 200 pM anti-HA-QD655 on HA-RON, then 50 pM QD605-conjugated EGF-biotin on endogenous EGFR; 34–36 °C, 20 frames per s; off-rate of hetero-interactions
[2] = biological target: HA-tagged RON (Recepteur d'Origine Nantais, MST1R) stably expressed in A431 cells (human); test: two-colour single quantum dot tracking with two-state hidden Markov model; live A431^RON cells, no ligand; HA-RON labelled with a mixture of anti-HA-QD605 and anti-HA-QD655 (monovalent Fab); 34–36 °C, 20 frames per s; off-rate of RON/RON homo-interactions

HA-tagged RON (Recepteur d'Origine Nantais, MST1R) stably expressed in A431 cells (human), sequence (Q04912 25-304 limits assumed, chain 1 of 2): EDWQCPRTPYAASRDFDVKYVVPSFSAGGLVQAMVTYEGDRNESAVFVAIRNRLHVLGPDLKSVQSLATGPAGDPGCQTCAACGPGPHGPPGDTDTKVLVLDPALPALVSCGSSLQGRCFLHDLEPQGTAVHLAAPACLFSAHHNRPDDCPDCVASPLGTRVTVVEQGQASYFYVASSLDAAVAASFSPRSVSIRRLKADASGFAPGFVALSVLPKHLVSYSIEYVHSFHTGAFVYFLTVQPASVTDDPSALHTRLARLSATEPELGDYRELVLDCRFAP
HA-tagged RON (Recepteur d'Origine Nantais, MST1R) stably expressed in A431 cells (human), sequence (Q04912 310-1400 limits assumed, chain 2 of 2): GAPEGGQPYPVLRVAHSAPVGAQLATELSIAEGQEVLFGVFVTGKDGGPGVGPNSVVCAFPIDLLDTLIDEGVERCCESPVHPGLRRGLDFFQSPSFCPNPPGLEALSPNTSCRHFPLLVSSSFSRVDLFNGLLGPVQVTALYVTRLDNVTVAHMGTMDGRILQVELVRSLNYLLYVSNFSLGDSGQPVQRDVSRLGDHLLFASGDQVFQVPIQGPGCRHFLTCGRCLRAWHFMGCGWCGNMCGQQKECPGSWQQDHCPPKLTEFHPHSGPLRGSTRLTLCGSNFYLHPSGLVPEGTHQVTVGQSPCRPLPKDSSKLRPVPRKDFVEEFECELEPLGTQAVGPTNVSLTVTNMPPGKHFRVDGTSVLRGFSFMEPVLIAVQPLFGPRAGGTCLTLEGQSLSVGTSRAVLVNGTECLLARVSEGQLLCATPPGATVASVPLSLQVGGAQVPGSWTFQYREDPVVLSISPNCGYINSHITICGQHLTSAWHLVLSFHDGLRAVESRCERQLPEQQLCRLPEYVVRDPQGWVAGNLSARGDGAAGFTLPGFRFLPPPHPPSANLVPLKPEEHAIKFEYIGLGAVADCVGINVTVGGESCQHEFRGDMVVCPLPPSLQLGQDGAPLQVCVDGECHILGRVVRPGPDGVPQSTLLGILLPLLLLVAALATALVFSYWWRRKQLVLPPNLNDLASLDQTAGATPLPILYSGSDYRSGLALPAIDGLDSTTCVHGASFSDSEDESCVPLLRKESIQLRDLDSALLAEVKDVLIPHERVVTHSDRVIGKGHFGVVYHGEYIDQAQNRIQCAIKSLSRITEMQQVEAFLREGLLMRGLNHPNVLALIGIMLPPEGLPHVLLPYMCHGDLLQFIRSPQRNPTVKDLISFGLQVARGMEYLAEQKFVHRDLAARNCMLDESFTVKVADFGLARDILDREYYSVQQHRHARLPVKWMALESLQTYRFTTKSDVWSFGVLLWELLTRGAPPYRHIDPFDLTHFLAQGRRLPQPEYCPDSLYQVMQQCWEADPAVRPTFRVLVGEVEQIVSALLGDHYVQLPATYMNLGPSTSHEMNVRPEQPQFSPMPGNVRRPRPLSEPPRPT

| average lifetime [1] | koff [1] | average lifetime [2] | koff [2] | Substance |
| --- | --- | --- | --- | --- |
| 2 s | 0.49 s⁻¹ |  |  | EGF-bound EGFR (QD-conjugated EGF-biotin on endogenous EGFR of live A431^RON cells) (from UniProt P00533 25-1210) (complex) |
|  |  | 5.5 s | 0.18 s⁻¹ | HA-tagged RON (Recepteur d'Origine Nantais, MST1R) stably expressed in A431 cells (receptor) |
